Laboratory results reported in patent US20170368132A1 (published 2017).
Non-standard residues stand in square brackets, D forms with d. Groups on a side chain read outwards from the residue. *: point of attachment. 5FAM = O=C1OC2(c3ccc(O)cc3Oc3cc(O)ccc32)c2ccc(C(=O)*)cc21

B1: Rad51 (S208E; A209D) (enzyme)
chain: MAMQMQLEANADTSVEEESFGPQPISRLEQCGINANDVKKLEEAGFHTVEAVAYAPKKELINIKGISEAKADKILAEAAKLVPMGFTTATEFHQRRSEIIQITTGSKELDKLLQGGIETGSITEMFGEFRTGKTQICHTLAVTCQLPIDRGGGEGKAMYIDTEGTFRPERLLAVAERYGLSGSDVLDNVAYARAFNTDHQTQLLYQAEDMMVESRYALLIVDSATALYRTDYSGRGELSARQMHLARFLRMLLRLADEFGVAVVITNQVVAQVDGAAMFAADPKKPIGGNIIAHASTTRLYLRKGRGETRICKIYDSPCLPEAEAMFAINADGVGDAKD
notes: Human RAD51 mutant tested by Y2H; also called human RAD51 S208E A209D
B2: Rad51 (Q202R, Y205D, Q206A) (enzyme)
chain: MAMQMQLEANADTSVEEESFGPQPISRLEQCGINANDVKKLEEAGFHTVEAVAYAPKKELINIKGISEAKADKILAEAAKLVPMGFTTATEFHQRRSEIIQITTGSKELDKLLQGGIETGSITEMFGEFRTGKTQICHTLAVTCQLPIDRGGGEGKAMYIDTEGTFRPERLLAVAERYGLSGSDVLDNVAYARAFNTDHQTRLLDAASAMMVESRYALLIVDSATALYRTDYSGRGELSARQMHLARFLRMLLRLADEFGVAVVITNQVVAQVDGAAMFAADPKKPIGGNIIAHASTTRLYLRKGRGETRICKIYDSPCLPEAEAMFAINADGVGDAKD
notes: Human RAD51 mutant tested by Y2H; also called human RAD51 Q202R Y205D Q206A
B3: Rad51 (F86E; A89E) (enzyme)
chain: MAMQMQLEANADTSVEEESFGPQPISRLEQCGINANDVKKLEEAGFHTVEAVAYAPKKELINIKGISEAKADKILAEAAKLVPMGETTETEFHQRRSEIIQITTGSKELDKLLQGGIETGSITEMFGEFRTGKTQICHTLAVTCQLPIDRGGGEGKAMYIDTEGTFRPERLLAVAERYGLSGSDVLDNVAYARAFNTDHQTQLLYQASAMMVESRYALLIVDSATALYRTDYSGRGELSARQMHLARFLRMLLRLADEFGVAVVITNQVVAQVDGAAMFAADPKKPIGGNIIAHASTTRLYLRKGRGETRICKIYDSPCLPEAEAMFAINADGVGDAKD
notes: Human RAD51 mutant tested by Y2H; also called human RAD51 F86E A89E
B4: Rad51 (A190L; A192L) (enzyme)
chain: MAMQMQLEANADTSVEEESFGPQPISRLEQCGINANDVKKLEEAGFHTVEAVAYAPKKELINIKGISEAKADKILAEAAKLVPMGFTTATEFHQRRSEIIQITTGSKELDKLLQGGIETGSITEMFGEFRTGKTQICHTLAVTCQLPIDRGGGEGKAMYIDTEGTFRPERLLAVAERYGLSGSDVLDNVLYLRAFNTDHQTQLLYQASAMMVESRYALLIVDSATALYRTDYSGRGELSARQMHLARFLRMLLRLADEFGVAVVITNQVVAQVDGAAMFAADPKKPIGGNIIAHASTTRLYLRKGRGETRICKIYDSPCLPEAEAMFAINADGVGDAKD
notes: Human RAD51 mutant tested by Y2H; also called human RAD51 A190L A192L
B5: Rad51 (S208L; A209E; M210A) (enzyme)
chain: MAMQMQLEANADTSVEEESFGPQPISRLEQCGINANDVKKLEEAGFHTVEAVAYAPKKELINIKGISEAKADKILAEAAKLVPMGFTTATEFHQRRSEIIQITTGSKELDKLLQGGIETGSITEMFGEFRTGKTQICHTLAVTCQLPIDRGGGEGKAMYIDTEGTFRPERLLAVAERYGLSGSDVLDNVAYARAFNTDHQTQLLYQALEAMVESRYALLIVDSATALYRTDYSGRGELSARQMHLARFLRMLLRLADEFGVAVVITNQVVAQVDGAAMFAADPKKPIGGNIIAHASTTRLYLRKGRGETRICKIYDSPCLPEAEAMFAINADGVGDAKD
notes: Human RAD51 mutant tested by Y2H; also called human RAD51 S208L A209E M210A

Tests used:
[1] = biological target: T1, Rad51, fluorescently labelled (microscale thermophoresis) (UniProt Q06609 1-339, limits assumed, fluorescently labelled according to the manufacturer's protocol (site not stated)); test: microscale thermophoresis, labelled Rad51 about 500 nM, PBS
T1 construct: Purified labelled protein at about 500 nM; The buffer contained 0.5 mM ATP and 2.5 uM ssDNA
T1 sequence (looked up): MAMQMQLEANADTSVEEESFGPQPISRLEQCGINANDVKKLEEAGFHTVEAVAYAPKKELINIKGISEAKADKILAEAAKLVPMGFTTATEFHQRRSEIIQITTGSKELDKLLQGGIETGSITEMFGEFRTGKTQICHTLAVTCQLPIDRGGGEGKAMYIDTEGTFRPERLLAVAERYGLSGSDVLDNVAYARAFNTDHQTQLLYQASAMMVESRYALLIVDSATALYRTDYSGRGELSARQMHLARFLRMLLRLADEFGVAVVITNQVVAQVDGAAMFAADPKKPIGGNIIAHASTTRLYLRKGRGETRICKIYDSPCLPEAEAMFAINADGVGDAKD
Protocol: (§1) Microscale thermophoresis was performed as previously described (see, for e.g. Jerabek-Willemsen, M., Wienken, C. J., Braun, D., Baaske, P. & Duhr, S. Molecular interaction studies using microscale thermophoresis. Assay Drug Dev. Technol. 9, 342-353 (2011)). The affinity of the Compound was measured using the Monolith NT.115 from Nanotemper Technologies. Rad51 was fluorescently labelled according to the manufacturer's protocol and the labelled protein used for each assay was about 500 nM. A solution of unlabelled peptide was diluted for appropriate serial concentration gradient. The samples were loaded into silica capillaries (Polymicro Technologies). Measurements were performed at room temperature in buffer containing PBS, 0.1% Tween 20, 0.5 mM ATP, 2.5 uM ssDNA, with 1 mM CaCl2 (when mentioned). Measurements were done using 12% LED power and 60% MST power. The assays were repeated three times for each affinity measurement. Data analyses were performed using Nanotemper Analysis software and OriginPro 8.0 software provided by the manufacturer.

Rad51 (A190L; A192L) = biological target: B4; test: yeast two-hybrid, human RAD51 mutant
Protocol: (§2) The ability of peptides to bind human RAD51 with various mutations was then tested by Y2H assay. […] While mutations affecting BRCA2 binding had no effect on peptide binding, mutations that affected RAD51-AP1 binding did disrupt peptide binding. As these mutations were at residues 202, 205, and 206, they were consistent with the previous fusion data showing binding somewhere in the 190-218 region, and indicated the peptide SEQ ID NO.:5 contacts at least residues 202, 205, and 206 of RAD51.

[2] = biological target: B5; test: yeast two-hybrid, human RAD51 mutant
Protocol: as §2

Rad51 (F86E; A89E) = biological target: B3; test: yeast two-hybrid, human RAD51 mutant
Protocol: as §2

Rad51 (S208E; A209D) = biological target: B1; test: yeast two-hybrid, human RAD51 mutant
Protocol: as §2

[3] = biological target: B2; test: yeast two-hybrid, human RAD51 mutant
Protocol: as §2

H. sapiens Rad51 = biological target: T2, H. sapiens Rad51 (H. sapiens, UniProt Q06609 1-339); test: yeast two-hybrid, human RAD51 mutant
T2 construct: Expressed in yeast as a two-hybrid fusion; also called human RAD51
T2 sequence: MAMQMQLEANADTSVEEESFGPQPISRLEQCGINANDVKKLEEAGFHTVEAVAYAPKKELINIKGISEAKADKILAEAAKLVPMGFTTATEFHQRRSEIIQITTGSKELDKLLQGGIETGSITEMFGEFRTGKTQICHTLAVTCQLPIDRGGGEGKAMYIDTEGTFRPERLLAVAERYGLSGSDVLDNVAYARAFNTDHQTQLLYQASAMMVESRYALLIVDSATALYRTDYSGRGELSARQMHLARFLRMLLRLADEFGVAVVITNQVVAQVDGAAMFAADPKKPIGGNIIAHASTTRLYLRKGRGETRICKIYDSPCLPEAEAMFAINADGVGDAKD
Protocol: as §2

[4] = biological target: T1, Rad51, fluorescently labelled …; test: microscale thermophoresis, 1 mM Ca2+ against no Ca2+
Protocol: as §1

[5] = biological target: T1, Rad51, fluorescently labelled …; test: microscale thermophoresis, labelled Rad51 about 500 nM, PBS + 1 mM Ca2+
Protocol: as §1

Binder: Ac-[dL][dM][dR][dS][dV][dR][dL][dR][dV]G[dL][dR][dK][dR][dR][dR][dR][dR][dR][dR]-NH2 [Compound 10, Ac-lmrsvrlrvGlrkrrrrrrr-NH2]
- Kd [1]: 8.55 nM

Binder: KEPTLLGFHTASGKKVKIAKESLDKVKNLFDEKEQ (Y2H fusion in yeast) [residues 1517-1551 of human BRCA2 used as Y2H bait]
- binding result (Rad51 (A190L; A192L)): no binding
- binding result [2]: no binding
- binding result (Rad51 (F86E; A89E)): binds
- binding result (Rad51 (S208E; A209D)): no binding
- binding result [3]: binds

Binder: B1
- binding result (H. sapiens Rad51): binds

Binder: B2
- binding result (H. sapiens Rad51): binds

Binder: Ac-K([C6-5FAM])RRRRRRRKRLGVRLRVSRML-NH2 (also called active peptide 5) [Compound 5, Ac-K(C6_5FAM)-RRRRRRRKRLGVRLRVSRML-NH2]
- Kd [1]: 8.37 nM
- fold increase of Kd (calcium raised from 0 to 1 mM) [4]: 3.4 fold
- Kd [5]: 28.9 nM

Binder: B3
- binding result (H. sapiens Rad51): no binding

Binder: B4
- binding result (H. sapiens Rad51): no binding

Binder: B5
- binding result (H. sapiens Rad51): no binding
